Measured values reported in patent US20150203577A1 (Chugai, published 2015).

T1: mouse FcγRII (mouse, UniProt P08101 30-210)
T1 construct: Extracellular domain with C-terminal His tag; also called mFcγRII; mFcgRII
T1 sequence: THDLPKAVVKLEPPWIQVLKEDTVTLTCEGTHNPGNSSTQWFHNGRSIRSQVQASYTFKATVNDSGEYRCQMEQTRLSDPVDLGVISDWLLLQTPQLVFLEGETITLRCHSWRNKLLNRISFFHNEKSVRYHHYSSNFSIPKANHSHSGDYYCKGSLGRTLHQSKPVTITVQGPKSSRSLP

T2: mouse FcγRIII (mouse, UniProt P08508 31-215)
T2 construct: Extracellular domain with C-terminal His tag; also called mFcγRIII; mFcgRIII
T2 chain: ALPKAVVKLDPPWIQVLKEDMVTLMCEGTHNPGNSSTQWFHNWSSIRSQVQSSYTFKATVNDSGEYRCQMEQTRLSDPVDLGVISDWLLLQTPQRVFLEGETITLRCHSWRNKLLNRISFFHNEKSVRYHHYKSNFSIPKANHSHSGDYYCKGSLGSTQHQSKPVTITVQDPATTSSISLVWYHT

B1: MB846 (antibody, mouse IgG1, kappa)
heavy: QVQLQESGPGLVKPSETLSLTCAVSGHSISHDHAWSWVRQPPGEGLEWIGFISYSGITNYNPSLQGRVTISRDNSKNTLYLQMNSLRAEDTAVYYCARSLARTTAMDYWGEGTLVTVSSAKTTPPSVYPLAPGSAAQTNSMVTLGCLVKGYFPEPVTVTWNSGSLSSGVHTFPAVLQSDLYTLSSSVTVPSSTWPSETVTCNVAHPASSTKVDKKIVPRDCGCKPCICEPNEVELVFIFPPKPKDVLTITLTPKVTCVVVDISDDDPEVQFSWFVDDVEVHTAQTQPREEQFNSTFRSVSELPIMHQDWLNGKEFKCRVNSDGFPAPIEKTISKTKGRPKAPQVYTIPPPKEQMAKDKVSLTCMITDFFPEDITVEWQWNGQPAENYKNTQPIMDTDGSYFVYSKLNVQKSNWEAGNTFTCSVLHEGLHNHHTEKSLSHSPGK
light: not shown
notes: CH name; VH H237 + CH, L chain MRAL-k0; copies: 2 + 2
B2: MB848 (antibody, mouse IgG1, kappa)
heavy: QVQLQESGPGLVKPSETLSLTCAVSGHSISHDHAWSWVRQPPGEGLEWIGFISYSGITNYNPSLQGRVTISRDNSKNTLYLQMNSLRAEDTAVYYCARSLARTTAMDYWGEGTLVTVSSAKTTPPSVYPLAPGSAAQTNSMVTLGCLVKGYFPEPVTVTWNSGSLSSGVHTFPAVLQSDLYTLSSSVTVPSSTWPSETVTCNVAHPASSTKVDKKIVPRDCGCKPCICEPNEVELVFIFPPKPKDVLTITLTPKVTCVVVDISKDDPEVQFSWFVDDVEVHTAQTQPREEQFNSTFRSVSELPIMHQDWLNGKEFKCRVDSDGFPAPIEKTISKTKGRPKAPQVYTIPPPKEQMAKDKVSLTCMITDFFPEDITVEWQWNGQPAENYKNTQPIMDTDGSYFVYSKLNVQKSNWEAGNTFTCSVLHEGLHNHHTEKSLSHSPGK
light: not shown
notes: as for B1
B3: MB853 (antibody, mouse IgG1, kappa)
heavy: QVQLQESGPGLVKPSETLSLTCAVSGHSISHDHAWSWVRQPPGEGLEWIGFISYSGITNYNPSLQGRVTISRDNSKNTLYLQMNSLRAEDTAVYYCARSLARTTAMDYWGEGTLVTVSSAKTTPPSVYPLAPGSAAQTNSMVTLGCLVKGYFPEPVTVTWNSGSLSSGVHTFPAVLQSDLYTLSSSVTVPSSTWPSETVTCNVAHPASSTKVDKKIVPRDCGCKPCICEPNEVELVFIFPPKPKDVLTITLTPKVTCVVVDISKDDPEVQFSWFVDDVEVHTAQTQPREELFNSTFRSVSELPIMHQDWLNGKEFKCRVNSDGFPAYIEKTISKTKGRPKAPQVYTIPPPKEQMAKDKVSLTCMITDFFPEDITVEWQWNGQPAENYKNTQPIMDTDGSYFVYSKLNVQKSNWEAGNTFTCSVLHEGLHNHHTEKSLSHSPGK
light: not shown
notes: as for B1
B4: MB852 (antibody, mouse IgG1, kappa)
heavy: QVQLQESGPGLVKPSETLSLTCAVSGHSISHDHAWSWVRQPPGEGLEWIGFISYSGITNYNPSLQGRVTISRDNSKNTLYLQMNSLRAEDTAVYYCARSLARTTAMDYWGEGTLVTVSSAKTTPPSVYPLAPGSAAQTNSMVTLGCLVKGYFPEPVTVTWNSGSLSSGVHTFPAVLQSDLYTLSSSVTVPSSTWPSETVTCNVAHPASSTKVDKKIVPRDCGCKPCICEPNEVELVFIFPPKPKDVLTITLTPKVTCVVVDISKDDPEVQFSWFVDDVEVHTAQTQPREELFNSTFRSVSELPIMHQDWLNGKEFKCRVDSDGFPAPIEKTISKTKGRPKAPQVYTIPPPKEQMAKDKVSLTCMITDFFPEDITVEWQWNGQPAENYKNTQPIMDTDGSYFVYSKLNVQKSNWEAGNTFTCSVLHEGLHNHHTEKSLSHSPGK
light: not shown
notes: as for B1
B5: MB851 (antibody, mouse IgG1, kappa)
heavy: QVQLQESGPGLVKPSETLSLTCAVSGHSISHDHAWSWVRQPPGEGLEWIGFISYSGITNYNPSLQGRVTISRDNSKNTLYLQMNSLRAEDTAVYYCARSLARTTAMDYWGEGTLVTVSSAKTTPPSVYPLAPGSAAQTNSMVTLGCLVKGYFPEPVTVTWNSGSLSSGVHTFPAVLQSDLYTLSSSVTVPSSTWPSETVTCNVAHPASSTKVDKKIVPRDCGCKPCICEPNEVELVFIFPPKPKDVLTITLTPKVTCVVVDISKDDPEVQFSWFVDDVEVHTAQTQPREEQFNSTFRSVSELPIMHQDWLNGKEFKCRVNSDGFPAPIERTISKTKGRPKAPQVYTIPPPKEQMAKDKVSLTCMITDFFPEDITVEWQWNGQPAENYKNTQPIMDTDGSYFVYSKLNVQKSNWEAGNTFTCSVLHEGLHNHHTEKSLSHSPGK
light: not shown
notes: as for B1
B6: MB849 (antibody, mouse IgG1, kappa)
heavy: QVQLQESGPGLVKPSETLSLTCAVSGHSISHDHAWSWVRQPPGEGLEWIGFISYSGITNYNPSLQGRVTISRDNSKNTLYLQMNSLRAEDTAVYYCARSLARTTAMDYWGEGTLVTVSSAKTTPPSVYPLAPGSAAQTNSMVTLGCLVKGYFPEPVTVTWNSGSLSSGVHTFPAVLQSDLYTLSSSVTVPSSTWPSETVTCNVAHPASSTKVDKKIVPRDCGCKPCICEPNEVELVFIFPPKPKDVLTITLTPKVTCVVVDISKDDPEVQFSWFVDDVEVHTAQTQPREEQFNSTFRSVSELPIMHQDWLNGKEFKCRVNSDGFPAYIEKTISKTKGRPKAPQVYTIPPPKEQMAKDKVSLTCMITDFFPEDITVEWQWNGQPAENYKNTQPIMDTDGSYFVYSKLNVQKSNWEAGNTFTCSVLHEGLHNHHTEKSLSHSPGK
light: not shown
notes: as for B1
B7: MB850 (antibody, mouse IgG1, kappa)
heavy: QVQLQESGPGLVKPSETLSLTCAVSGHSISHDHAWSWVRQPPGEGLEWIGFISYSGITNYNPSLQGRVTISRDNSKNTLYLQMNSLRAEDTAVYYCARSLARTTAMDYWGEGTLVTVSSAKTTPPSVYPLAPGSAAQTNSMVTLGCLVKGYFPEPVTVTWNSGSLSSGVHTFPAVLQSDLYTLSSSVTVPSSTWPSETVTCNVAHPASSTKVDKKIVPRDCGCKPCICEPNEVELVFIFPPKPKDVLTITLTPKVTCVVVDISKDDPEVQFSWFVDDVEVHTAQTQPREEQFNSTFRSVSELPIMHQDWLNGKEFKCRVNSDGFPAPIYKTISKTKGRPKAPQVYTIPPPKEQMAKDKVSLTCMITDFFPEDITVEWQWNGQPAENYKNTQPIMDTDGSYFVYSKLNVQKSNWEAGNTFTCSVLHEGLHNHHTEKSLSHSPGK
light: not shown
notes: as for B1
B8: MB847 (antibody, mouse IgG1, kappa)
heavy: QVQLQESGPGLVKPSETLSLTCAVSGHSISHDHAWSWVRQPPGEGLEWIGFISYSGITNYNPSLQGRVTISRDNSKNTLYLQMNSLRAEDTAVYYCARSLARTTAMDYWGEGTLVTVSSAKTTPPSVYPLAPGSAAQTNSMVTLGCLVKGYFPEPVTVTWNSGSLSSGVHTFPAVLQSDLYTLSSSVTVPSSTWPSETVTCNVAHPASSTKVDKKIVPRDCGCKPCICEPNEVELVFIFPPKPKDVLTITLTPKVTCVVVDISKDDPEVQFSWFVDDVEVHTAQTQPREELFNSTFRSVSELPIMHQDWLNGKEFKCRVNSDGFPAPIEKTISKTKGRPKAPQVYTIPPPKEQMAKDKVSLTCMITDFFPEDITVEWQWNGQPAENYKNTQPIMDTDGSYFVYSKLNVQKSNWEAGNTFTCSVLHEGLHNHHTEKSLSHSPGK
light: not shown
notes: as for B1
B9: MB854 (antibody, mouse IgG1, kappa)
heavy: QVQLQESGPGLVKPSETLSLTCAVSGHSISHDHAWSWVRQPPGEGLEWIGFISYSGITNYNPSLQGRVTISRDNSKNTLYLQMNSLRAEDTAVYYCARSLARTTAMDYWGEGTLVTVSSAKTTPPSVYPLAPGSAAQTNSMVTLGCLVKGYFPEPVTVTWNSGSLSSGVHTFPAVLQSDLYTLSSSVTVPSSTWPSETVTCNVAHPASSTKVDKKIVPRDCGCKPCICEPNEVELVFIFPPKPKDVLTITLTPKVTCVVVDISKDDPEVQFSWFVDDVEVHTAQTQPREELFNSTFRSVSELPIMHQDWLNGKEFKCRVNSDGFPAPIYKTISKTKGRPKAPQVYTIPPPKEQMAKDKVSLTCMITDFFPEDITVEWQWNGQPAENYKNTQPIMDTDGSYFVYSKLNVQKSNWEAGNTFTCSVLHEGLHNHHTEKSLSHSPGK
light: not shown
notes: as for B1

Legend:
mouse FcγRII [1] = target: T1, mouse FcγRII; test: SPR (Biacore T200); KD of H237-mIgG1/MRAL-k0 / KD of variant
mouse FcγRIII [2] = target: T2, mouse FcγRIII; test: as above
mouse FcγRII [3] = target: T1, mouse FcγRII; test: SPR (Biacore T200); KD of H237-MB630/MRAL-k0 / KD of variant
mouse FcγRIII [4] = target: T2, mouse FcγRIII; test: as above

| Binder | relative mFcγRII-binding activity (mIgG1 = 1) (mouse FcγRII [1]) [fold] | relative mFcγRIII-binding activity (mIgG1 = 1) (mouse FcγRIII [2]) [fold] | Relative mFcγRII-binding activity (MB630 = 1) (mouse FcγRII [3]) [fold] | Relative mFcγRIII-binding activity (MB630 = 1) (mouse FcγRIII [4]) [fold] |
| --- | --- | --- | --- | --- |
| B1 | 72.1 | 2.12 | 6.8 | 11.6 |
| B2 | 45.8 | 0.92 | 4.33 | 5 |
| B3 | 35 | 1.13 | 3.31 | 6.2 |
| B4 | 61 | 1.83 | 5.76 | 10 |
| B5 | 43.8 | 0.96 | 4.13 | 5.23 |
| B6 | 31.4 | 0.65 | 2.97 | 3.54 |
| B7 | 43.7 | 0.79 | 4.12 | 4.3 |
| B8 | 43.7 | 1.33 | 4.12 | 7.24 |
| B9 | 50.6 | 1.25 | 4.77 | 6.84 |
